In publication PMC3086075:

Experiments:
Assay in all cases: discontinuous malachite green phosphate-release assay, Michaelis-Menten fit
Format in all cases: biochemical, Pasteurella multocida
Conditions in all cases: 200 mM sodium acetate pH 5.5, 1 mM MgCl2, 37 °C, apparent Km
[1] = substrate: O=[N+]([O-])c1ccc(OP(=O)(O)O)cc1
[2] = substrate: Nc1ncnc2c1ncn2[C@@H]1O[C@H](CO)[C@@H](O)[C@H]1OP(=O)(O)O
[3] = substrate: Nc1ncnc2c1ncn2[C@@H]1O[C@H](COP(=O)(O)O)[C@@H](O)[C@H]1O
[4] = substrate: NC(=O)c1ccc[n+]([C@@H]2O[C@H](COP(=O)([O-])O)[C@@H](O)[C@H]2O)c1
[5] = substrate: Nc1ncnc2c1ncn2[C@@H]1O[C@H](CO)[C@@H](OP(=O)(O)O)[C@H]1O

B1: rPmCCAP (Pasteurella multocida) (protein)
chain: SNQQAVEQANQAKLQQQVAMGLIWTQQSGEYAALAHQAFNSAKMAFDHAKAKKGKKKAVVVDLDETMIDNSAYAGWQVQSGQGFSPKTWTKWVDARQSAAIPGAVEFSNYVNANGGTMFFVSNRRDDVEKAGTVDDMKRLGFTGVNDKTLLLKKDKSNKSVRFKQVEDMGYDIVLFVGDNLNDFGDATYKKSNAERRDFVAKNSKAFGKKFIVLPNTQYGDWEGGLDKNYFKGDSQSKLDVRAKAIHAWDGK
Km [1]: 500 ± 100 µM | kcat [1]: 6.2 ± 0.5 s⁻¹ | kcat/Km [1]: 12000 ± 2700 M⁻¹ s⁻¹ | Km [2]: 1400 ± 300 µM | kcat [2]: 0.13 ± 0.01 s⁻¹ | kcat/Km [2]: 90 ± 21 M⁻¹ s⁻¹ | Km [3]: 80 ± 10 µM | kcat [3]: 0.18 ± 0.01 s⁻¹ | kcat/Km [3]: 2300 ± 310 M⁻¹ s⁻¹ | Km [4]: 290 ± 60 µM | kcat [4]: 4.4 ± 0.3 s⁻¹ | kcat/Km [4]: 15000 ± 3300 M⁻¹ s⁻¹ | Km [5]: 800 ± 200 µM | kcat [5]: 0.19 ± 0.01 s⁻¹ | kcat/Km [5]: 240 ± 61 M⁻¹ s⁻¹
